Data published in publication PMC5470993, “Discovery and characterization of small molecule Rac1 inhibitors” (Oncotarget, 2017).

Target: Recombinant Rac1 (1-192aa), His-tagged fusion protein (UniProt P63000 1-192)
Test: pull-down; cell-free: 5 μg purified His-Rac1 in 20 μl GTP binding buffer (20 mM Tris-HCl pH 7.6, 100 mM NaCl, 2 mM MgCl2, 1 mM DTT) with 1% BSA, GTP-γS (0.01-10 μM, or 200 nM after 1 h with compound #1 or #6) for 10 min at room temperature, then 1 h with GST-PAK1 on agarose beads; Rac1 immunoblot
Conditions: both partners purified

B1: GST-PAK1-PBD (70-117aa) (domain or fragment)
chain: KERPEISLPSDFEHTIHVGFDAVTGEFTGMPEQWARLLQTSNITKSEQ
notes: Held on glutathione/agarose beads; The methods also name a Rac1/Cdc42 assay kit (Upstate Biotechnology); also called GST-PAK1 (RBD); source: E. coli DH5α, purified on glutathione resin; plasmid from Addgene
B1: binds.
